The numbers were not newly measured in publication PMC8144458, which cites them from elsewhere.

Targets include Asp47 (UniProt position 68, KDKPEDAVLDV); Asp51 (UniProt position 72, EDAVLDVQGIA); Glu46 (UniProt position 67, NKDKPEDAVLD).
Holding throughout (assay): NMR
What all share (conditions): HdeA without client protein

Broadly, the pKa is the pH at which an ionisable group is half protonated. With “Acid stress chaperone HdeA (Escherichia coli)”, the pKa is 4.14 in the data set with Asp47, 3.83 with Asp51 and 4.07 in the data set with Glu46.
